Test results as given in the supplement of paper PMC9170038.

system: K4 kissing-loop RNA reporter; assay: apparent KD of K4 kissing-loop reporter; higher = weaker reporter binding; settings: Eterna round: R107; input ligand: arginine 13.2 mM
Protocol: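 RNA-MaP round R107: designed RNA switches with theophylline, tryptophan, arginine or FMN aptamers are transcribed on-chip within common flanks. They are titrated with a labelled K4 kissing-loop RNA reporter in RNA-MaP buffer (100 mM Tris pH 7.5, 80 mM KCl, 4 mM MgCl2), without ligand or with the indicated ligand. Median apparent KD per design.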
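Further: bound reporter read as fluorescence of individual clusters on recovered sequencing chips by microscopy, with normalized cluster intensities fitted with a binding model.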

Sequence | apparent KD of K4 kissing-loop reporter
GGGAGUUAUUACGGCAGGGUCGAUACGGAUACCAGUAGGCGGCUCUACCCUUGGCAGCCGUAACAUGGUAGUGAUGUUAUCAGUC [theeternabot_exclusion_KL_Theo_A_24] | 420 nM
GGCACUUUUGGUAGACACCAUCUACCUCUAUAGGAUAUGCCGAAAGGCAGAAGGAUAGACCUACAGAGUGAUGUUCUGCGUGCCU | 801 nM
CCUAUCUCAUACGAUACCAGUCAAUGAAAUUUUAUCAAUGCCAUCACCGAGUGAUGUUCGGACCCUUGGCAGCGUAUGGGAUAGG [Ex Theophylline B K4 3] | 195 nM
ACUGAGCAUGCGGCCGCCACUUCAGAACGUCGCCCAGAGGGCGACGCCUCCGCAGUGAUGUUGUGGAGGACCGGGCAUGUUCAGA [Omei KL Tryp B Exc A v5] | 360 nM
UUAUAACCCAGUGAUGUUGGGUAGCGGCCACGAGGACCGGUACGGCCGCCACUCGAGGUUUAACCAGUGAUGUUGGACUAUAUAA [Same state Tryptophan A GF 4] | 35.2 nM
UUGUUUGGUUGAGAGGUUGGGCGAGAUGAUACCAGUAGAGAAGAGUACCCUUGGCAGCAUAGGAGAGAUAUAGUGAUGUUGUAUG [SSTheophA.S] | 187 nM
CCGCUGUACUGCAAUAAGUGAUGUUUAUUGCAGGAUAUCUGGAAACAGAGAAGGGCAUGUACUCGACUUAGCCACUACAGCGGUU | 57.3 nM
GUAGAUAGGCUACAUCUCUAGUCUAUAGACUAGGAUAUCAGGAAACUGAGAAGGAGUCUCAUUGGAGUGAUGUUCCAAGAAUAAU [KL-SSFMN-A15] | 115 nM
AAUAAUAAUAAAUAUAGAUUGAUGAGGAAACGAGGACCGGUACGGCCGCCACUCGAGUGAUGUUCGAGAACCUCAUCAAUCAUAA [AK4.7 Exc Tryptophan A] | 132 nM
CUUCUCCUUCCAAUCUCGGCCAACACGGGACGAGGACCGGUACGGCCGCCACUCGUGCAGUGAUGUUGCACGAUGGUGACGGAGA [Queronmaan] | 87.6 nM
CUGAGCUGCAGCGAUACCAGUGUGGAGUGAUGUUCCCUGGUCCGGGCUGUUGUUCCCUUGCGCCCUUGGCAGCGCAGGAGCAGGG [Exclusion Theophylline B GF 15] | 352 nM
AAGGCCACGAGAAGGAGCGUGCUAUGGAGUGAUGUUCCAAUGUAGACCUAAGGUCUACAAGCACAGGUAGGUCGCUCGUGGUCAA [Omei KL Arginine B SS A v2] | 96.9 nM
CGACUAGUCUUGCAACCCUAGUCGAUAGACUAGGAUAUCAGGAAACUGAGAAGGAGUCUACUUGCAGUGAUGUUGCAAGAAUAAU [[F]''-[K]'-[F]'-[F1]-[F2]-[K1]-[K2]_Design6] | 176 nM
GCAUGUAUGCGAGAGUGAUGUUCAUGGUUUCGAGGACCGGUACGGCCGCCACUCGCGAUCCGGCGUACAAUCGUGAAGUUAUCAU [theeternabot_sameState_KL_Trp_A_42] | 469 nM
GCGCGUCAUGUCAGCGGUGACACUGUCGAUACCAGCGCCGUAAGGCGCCCUUGGCAGCGACGUGCUGGAGUGAUGUUCCAGCGUC [#2 Exclusion - Theophylline A Attempt #20 (HarryS)] | 110 nM
AAUACCUGAGUGAUGUUCAGGGAAUCAGAAGGAGCGUCAAUUAUGACAGGUAGGUCGCUGAAGACAUGUGUGUAUACACAUGUCC [#04 K4 Arginine A Same State] | 198 nM
AAAAUAAUCCAGUGAUGUUGGUAUCCAGAUACCAGCCACGAAAGUGGCCCUUGGCAGCUGUGGACGUACAAAAUAAGUACGUCCU [#OpenEnded 8 #StaticStem #K4Early] | 293 nM
UGAUACCAGACGGCCGCCACUCCUGCAGUCAAAGACUGCUAAAGGAAAUUCGUCCAGUGAUGUUGGAGGACCGGGUCUGGUAUCU [TrypBX 13 #SwitchBubble #Palindromic #StaticStem] | 753 nM
GGCGGCCGCGCGAAAGCGCGGCCGGCCGAUACCAGCGCGACGGCGCGCCCUUGGCAGCGGCGCCGAGUGAUGUUCGGCCUGCCGU [#2 Same State - Theophylline A Attempt #13 (HarryS)] | 122 nM
GGAUAGGACAGAGGAUAUGGUAGUGAUGUUACCAAACUGGUUAUUAAUGUCAGAAAACUGGCAAAUCCAGAAGGCUGUCCUAUCG [KL-XFMN-B13] | 63.8 nM
UAAGUCUUAUCGGCCGCCACUCAUUACACGAAGUGAUGUUUCGGGUUUUAGACAAAUAAUUUUUGGAGGACCGGGAUACGAGAAA [theeternabot_sameState_KL_Trp_B_49] | 113 nM
AAACAUUGGUCGGAUACCAGUUAGACCGAUAAGGUCAAAACUGGAGUGAUGUUCCCAAAUAACCCUUGGCAGCCGACCGAUGAAA [MAT - Same State Theophlline B - Mod of Eli - D11] | 121 nM
AGACUACCACACUGUCAAUAGACAGUGAACUAGGAUAUGCUGAUAAGCAGAAGGAGUGAUGUUCCUCGGUAGUCAAUAAAAUAAU [FmnAX 13 C67] | 255 nM
UGUGAUGUGUAGAGUGAUGUUUUGAAGGAUACCAGAGUGUUGUUAUUCCCUUGGCAGCUUGAGUGAUGUUUGAUGUUGUUGUUGU [efvrmullin] | 120 nM

same assay, conditions: Eterna round: R107; input ligand: none

Sequence | apparent KD of K4 kissing-loop reporter
GCCGUAGAUGGAAGGAGCGACUUCAGCGGAUAAACGUGACAAUUGGAGUGAUGUUCGCAAGGUCAGGUAGGUCGCCAUCUACGGC | 260 nM
AUUUUGGUUUAGAGUGAUGUUCCUUGUAUUCGAGGACCGGUACGGCCGCCACUCGGGUAGAAAAGAAAAGAAAUGUUUGAUUUUU [BDazzled - #9 SS Tryptophan A] | 210 nM
UACCUAUUAUUAACACUAUAUACAACUGAAGGAGCGACAAUAAAGUCAGGUAGGUCGCAGAAUUAAUGAGUGAUGUUCAUUUUUA [JR_ExcArginiA_Sub014] | 95.3 nM
AAAAUAAAGGAGUGAUGUUCCAUAUGUGAUACCAGCCACGAAAGUGGCCCUUGGCAGCACUGCCAAGUGGACGAAAACGUCCACA [#OpenEnded 5 #StaticStem #K4Early] | 141 nM
UGUACCGAGUCAGGAUAUCAACGACUGACAAAGUCGGUCGAAUAUCCAGUGAUGUUGGAAAAUAAAUGAGAAGGGACUUGGUACU [FmnBS 12 #SwitchBubble #StaticStem] | 360 nM
UCGAUGGUCAGCGAUACCAGCCCAGUGAUGUUGGGCACAUGGUUGCGGAAAAUCCCAUUGGGCCCUUGGCAGCGCUUGCAUGGGU [Titiquesan] | 123 nM
AGAGAGGUGUUUUUUUGAAGUGAGUAAUGGCGAGGACCGGUACGGCCGCCACUCGGGUGAUGUUAGUGAUGUUGAUGUAGUGAUG [yrymullin] | 66.3 nM
GGGAGUUAUUACGGCAGGGUCGAUACGGAUACCAGUAGGCGGCUCUACCCUUGGCAGCCGUAACAUGGUAGUGAUGUUAUCAGUC [theeternabot_exclusion_KL_Theo_A_24] | 518 nM
GGCACUUUUGGUAGACACCAUCUACCUCUAUAGGAUAUGCCGAAAGGCAGAAGGAUAGACCUACAGAGUGAUGUUCUGCGUGCCU | 1230 nM
CCUAUCUCAUACGAUACCAGUCAAUGAAAUUUUAUCAAUGCCAUCACCGAGUGAUGUUCGGACCCUUGGCAGCGUAUGGGAUAGG [Ex Theophylline B K4 3] | 237 nM
ACUGAGCAUGCGGCCGCCACUUCAGAACGUCGCCCAGAGGGCGACGCCUCCGCAGUGAUGUUGUGGAGGACCGGGCAUGUUCAGA [Omei KL Tryp B Exc A v5] | 355 nM
UUAUAACCCAGUGAUGUUGGGUAGCGGCCACGAGGACCGGUACGGCCGCCACUCGAGGUUUAACCAGUGAUGUUGGACUAUAUAA [Same state Tryptophan A GF 4] | 47 nM
UUGUUUGGUUGAGAGGUUGGGCGAGAUGAUACCAGUAGAGAAGAGUACCCUUGGCAGCAUAGGAGAGAUAUAGUGAUGUUGUAUG [SSTheophA.S] | 320 nM
CCGCUGUACUGCAAUAAGUGAUGUUUAUUGCAGGAUAUCUGGAAACAGAGAAGGGCAUGUACUCGACUUAGCCACUACAGCGGUU | 61.1 nM
GUAGAUAGGCUACAUCUCUAGUCUAUAGACUAGGAUAUCAGGAAACUGAGAAGGAGUCUCAUUGGAGUGAUGUUCCAAGAAUAAU [KL-SSFMN-A15] | 114 nM
